Results taken from US20220033462A1 (ALLOGENE THERAPEUTICS, published 2022).

T1: recombinant human CD19-mouse IgG Fc fusion protein (human; mouse, UniProt P15391 20-291, limits assumed)
T1 construct: Staining reagent; not shown: mouse IgG Fc
T1 sequence (looked up): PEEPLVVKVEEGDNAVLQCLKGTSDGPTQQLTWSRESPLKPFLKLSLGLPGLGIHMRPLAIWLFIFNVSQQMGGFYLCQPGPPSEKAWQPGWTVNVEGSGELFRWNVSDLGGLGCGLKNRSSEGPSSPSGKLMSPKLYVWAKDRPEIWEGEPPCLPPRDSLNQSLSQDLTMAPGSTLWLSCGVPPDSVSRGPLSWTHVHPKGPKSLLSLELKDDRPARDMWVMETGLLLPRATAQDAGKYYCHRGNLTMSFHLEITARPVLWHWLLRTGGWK


How the values were obtained:
[1] = target: T2, biotinylated recombinant human PSMA-human IgG1 Fc fusion protein (human, UniProt Q04609 44-750, biotinylated (sites not given)); assay: flow cytometry, reporter Jurkat cells co-expressing P-CAR2 (FIGS. 6-9)
T2 construct: Staining reagent; not shown: human IgG1 Fc
T2 sequence (Q04609 44-750 limits assumed): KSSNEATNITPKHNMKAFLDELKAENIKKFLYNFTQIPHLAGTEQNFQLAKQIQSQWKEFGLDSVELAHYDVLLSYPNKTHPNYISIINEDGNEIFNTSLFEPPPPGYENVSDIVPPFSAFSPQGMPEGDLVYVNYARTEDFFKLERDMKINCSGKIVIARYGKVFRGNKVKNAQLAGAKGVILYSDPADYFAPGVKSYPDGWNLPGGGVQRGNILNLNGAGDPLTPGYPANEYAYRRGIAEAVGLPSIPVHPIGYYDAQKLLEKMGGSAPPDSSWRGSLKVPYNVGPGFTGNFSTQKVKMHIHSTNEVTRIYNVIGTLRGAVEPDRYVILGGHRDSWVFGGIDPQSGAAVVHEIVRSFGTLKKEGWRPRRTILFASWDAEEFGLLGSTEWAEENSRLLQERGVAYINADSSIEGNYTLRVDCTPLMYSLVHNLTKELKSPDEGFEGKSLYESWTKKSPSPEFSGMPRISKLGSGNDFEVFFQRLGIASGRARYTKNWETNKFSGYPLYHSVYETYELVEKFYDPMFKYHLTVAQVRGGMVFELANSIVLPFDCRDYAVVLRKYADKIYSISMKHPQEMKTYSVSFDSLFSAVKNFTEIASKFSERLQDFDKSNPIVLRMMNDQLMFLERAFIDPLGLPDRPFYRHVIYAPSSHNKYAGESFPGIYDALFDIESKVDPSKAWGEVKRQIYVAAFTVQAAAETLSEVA

[2] = target: T1, recombinant human CD19-mouse IgG Fc …; assay: flow cytometry, NFAT-/NFkB-luciferase reporter Jurkat cells expressing P-CAR2 (FIGS. 6-9)

binding result [1]	binding result [2]	Binder
binds		N-CAR PD1-CTLA4 (SEQ ID No 1999 with intracellular domain SEQ ID No 2003) (other) EVQLQQSGPELVKPGTSVRISCKTSGYTFTEYTIHWVKQSHGKSLEWIGNINPNNGGTTYNQKFEDKATLTVDKSSSTAYMELRSLTSEDSAVYYCAAGWNFDYWGQGTTVTVSSGGGGSGGGGSGGGGSDIVMTQSHKFMSTSVGDRVSIICKASQDVGTAVDWYQQKPGQSPKLLIYWASTRHTGVPDRFTGSGSGTDFTLTITNVQSEDLADYFCQQYNSYPLTFGAGTMLDLKRAAATERRAEVPTAHPSPSPRPAGQFQTLVVGVVGGLLGSLVLLVWVLAVICSRAARGTIGARRTGQPLKEDPSAVPVFSVDYGELDFQWREKTPEPPVPCVPEQTEYATIVFPSGMGTSSPARRGSADGPRSAQPLRPEDGHCSWPLAVSLSKMLKKRSPLTTGVYVKMPPTEPECEKQFQPYFIPIN
binds		N-CAR PD1-LAG3 (SEQ ID No 1999 with intracellular domain SEQ ID No 2004) (other) EVQLQQSGPELVKPGTSVRISCKTSGYTFTEYTIHWVKQSHGKSLEWIGNINPNNGGTTYNQKFEDKATLTVDKSSSTAYMELRSLTSEDSAVYYCAAGWNFDYWGQGTTVTVSSGGGGSGGGGSGGGGSDIVMTQSHKFMSTSVGDRVSIICKASQDVGTAVDWYQQKPGQSPKLLIYWASTRHTGVPDRFTGSGSGTDFTLTITNVQSEDLADYFCQQYNSYPLTFGAGTMLDLKRAAATERRAEVPTAHPSPSPRPAGQFQTLVVGVVGGLLGSLVLLVWVLAVICSRAARGTIGARRTGQPLKEDPSAVPVFSVDYGELDFQWREKTPEPPVPCVPEQTEYATIVFPSGMGTSSPARRGSADGPRSAQPLRPEDGHCSWPLHLWRRQWRPRRFSALEQGIHPPQAQSKIEELEQEPEPEPEPEPEPEPEPEPEQL

Further lines, the binder ahead of its results:

Binder	binding result [1]	binding result [2]
N-CAR BTLA (SEQ ID No 1999 with intracellular domain SEQ ID No 2001) (other) EVQLQQSGPELVKPGTSVRISCKTSGYTFTEYTIHWVKQSHGKSLEWIGNINPNNGGTTYNQKFEDKATLTVDKSSSTAYMELRSLTSEDSAVYYCAAGWNFDYWGQGTTVTVSSGGGGSGGGGSGGGGSDIVMTQSHKFMSTSVGDRVSIICKASQDVGTAVDWYQQKPGQSPKLLIYWASTRHTGVPDRFTGSGSGTDFTLTITNVQSEDLADYFCQQYNSYPLTFGAGTMLDLKRAAATERRAEVPTAHPSPSPRPAGQFQTLVVGVVGGLLGSLVLLVWVLAVIRRHQGKQNELSDTAGREINLVDAHLKSEQTEASTRQNSQVLLSETGIYDNDPDLCFRMQEGSEVYSNPCLEENKPGIVYASLNHSVIGPNSRLARNVKEAPTEYASICVRS	binds	
P-CAR2 (SEQ ID No 2020) (other, Chimeric antigen receptor on the surface of transduced reporter Jurkat cells; also called positive signaling CAR with scFv from anti-CD19 antibody SJ25C1) EVKLQQSGAELVRPGSSVKISCKASGYAFSSYWMNWVKQRPGQGLEWIGQIYPGDGDTNYNGKFKGQATLTADKSSSTAYMQLSGLTSEDSAVYFCARKTISSVVDFYFDYWGQGTTVTVSSGGGGSGGGGSGGGGSDIELTQSPKFMSTSVGDRVSVTCKASQNVGTNVAWYQQKPGQSPKPLIYSATYRNSGVPDRFTGSGSGTDFTLTITNVQSKDLADYFCQQYNRYPYTSGGGTKLEIKRAAAIEVMYPPPYLDNEKSNGTIIHVKGKHLCPSPLFPGPSKPFWVLVVVGGVLACYSLLVTVAFIIFWVRSKRSRLLHSDYMNMTPRRPGPTRKHYQPYAPPRDFAAYRSRVKFSRSADAPAYQQGQNQLYNELNLGRREEYDVLDKRRGRDPEMGGKPRRKNPQEGLYNELQKDKMAEAYSEIGMKGERRRGKGHDGLYQGLSTATKDTYDALHMQALPPR		binds
N-CAR PD1 (SEQ ID No 1999 with intracellular domain SEQ ID No 2000) (other) EVQLQQSGPELVKPGTSVRISCKTSGYTFTEYTIHWVKQSHGKSLEWIGNINPNNGGTTYNQKFEDKATLTVDKSSSTAYMELRSLTSEDSAVYYCAAGWNFDYWGQGTTVTVSSGGGGSGGGGSGGGGSDIVMTQSHKFMSTSVGDRVSIICKASQDVGTAVDWYQQKPGQSPKLLIYWASTRHTGVPDRFTGSGSGTDFTLTITNVQSEDLADYFCQQYNSYPLTFGAGTMLDLKRAAATERRAEVPTAHPSPSPRPAGQFQTLVVGVVGGLLGSLVLLVWVLAVICSRAARGTIGARRTGQPLKEDPSAVPVFSVDYGELDFQWREKTPEPPVPCVPEQTEYATIVFPSGMGTSSPARRGSADGPRSAQPLRPEDGHCSWPL	binds	
N-CAR CD244 (SEQ ID No 1999 with intracellular domain SEQ ID No 2002) (other) EVQLQQSGPELVKPGTSVRISCKTSGYTFTEYTIHWVKQSHGKSLEWIGNINPNNGGTTYNQKFEDKATLTVDKSSSTAYMELRSLTSEDSAVYYCAAGWNFDYWGQGTTVTVSSGGGGSGGGGSGGGGSDIVMTQSHKFMSTSVGDRVSIICKASQDVGTAVDWYQQKPGQSPKLLIYWASTRHTGVPDRFTGSGSGTDFTLTITNVQSEDLADYFCQQYNSYPLTFGAGTMLDLKRAAATERRAEVPTAHPSPSPRPAGQFQTLVVGVVGGLLGSLVLLVWVLAVIWRRKRKEKQSETSPKEFLTIYEDVKDLKTRRNHEQEQTFPGGGSTIYSMIQSQSSAPTSQEPAYTLYSLIQPSRKSGSRKRNHSPSFNSTIYEVIGKSQPKAQNPARLSRKELENFDVYS	binds	
